According to the supplement of paper PMC10724198:
± gives the standard deviation of the averaged measurements.

System: Saccharomyces cerevisiae
Experiment: protein stability index of tFT-peptide fusion (C-terminal peptide) (PSI (0-1 scale)); higher = more stable (slower turnover)
Conditions: temperature: 30 C
Procedure: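 MPS profiling in S. cerevisiae of the yeast C-terminome library: the last 12 aa of each annotated ORF are fused to the C-terminus of a sfGFP-mCherry timer, after a GGGS linker. Cells are FACS-sorted into 8 mCherry/sfGFP bins and deep-sequenced. PSI runs from 0 (unstable) to 1 (stable); wild type and das1Δ backgrounds, two technical replicates each.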

[1] = genetic background: das1 deletion

PIKLKSDEEMII [YFL040W C-terminal 12 aa]
protein stability index [1]: 0.707 ± 0.025
protein stability index (genetic background: wild type): 0.6724 ± 0.0042

NEELEKLRPPIT [SIP3 C-terminal 12 aa]
protein stability index [1]: 0.7001 ± 0.0018
protein stability index (genetic background: wild type): 0.716 ± 0.052

LFTAMRTVLFGK [CBP6 C-terminal 12 aa]
protein stability index [1]: 0.704 ± 0.0044
protein stability index (genetic background: wild type): 0.72 ± 0.14

AFSDLSTLENAS [ATG42 C-terminal 12 aa]
protein stability index [1]: 0.7267 ± 0.001
protein stability index (genetic background: wild type): 0.723 ± 0.03

PLYSMVAGENSL [SPO23 C-terminal 12 aa]
protein stability index [1]: 0.678 ± 0.021
protein stability index (genetic background: wild type): 0.688 ± 0.023

SVFGEAEEVTNW [MET2 C-terminal 12 aa]
protein stability index [1]: 0.701 ± 0.017
protein stability index (genetic background: wild type): 0.702 ± 0.031

PMIENLRFPNAR [YEH2 C-terminal 12 aa]
protein stability index [1]: 0.688 ± 0.023
protein stability index (genetic background: wild type): 0.7039 ± 0.0046

ERGMYRYYSLKA [LUG1 C-terminal 12 aa]
protein stability index [1]: 0.623 ± 0.028
protein stability index (genetic background: wild type): 0.621 ± 0.015

FAAPIKPSTRAG [YLR347W-A C-terminal 12 aa]
protein stability index [1]: 0.6876 ± 0.0016
protein stability index (genetic background: wild type): 0.71 ± 0.0086

SETFATPTPNNR [SPC42 C-terminal 12 aa]
protein stability index [1]: 0.718 ± 0.022
protein stability index (genetic background: wild type): 0.725 ± 0.01

IFMCIILANKHF [YFR052C-A C-terminal 12 aa]
protein stability index [1]: 0.342 ± 0.02
protein stability index (genetic background: wild type): 0.22 ± 0.009

EDDFGPKPKFFI [SWE1 C-terminal 12 aa]
protein stability index [1]: 0.71 ± 0.011
protein stability index (genetic background: wild type): 0.683 ± 0.039

IKPSAEVHINAL [VMA10 C-terminal 12 aa]
protein stability index [1]: 0.686 ± 0.011
protein stability index (genetic background: wild type): 0.743 ± 0.092

TASEIQRTKSSI [YGR035C C-terminal 12 aa]
protein stability index [1]: 0.711 ± 0.03
protein stability index (genetic background: wild type): 0.683 ± 0.022

FSDWKNNNGPHK [IBA57 C-terminal 12 aa]
protein stability index [1]: 0.701 ± 0.02
protein stability index (genetic background: wild type): 0.71 ± 0.062

SIQWIWRYSFVY [YIR020C C-terminal 12 aa]
protein stability index [1]: 0.464 ± 0.0072
protein stability index (genetic background: wild type): 0.44 ± 0.025

PSFSNSQWRIIF [YOR169C C-terminal 12 aa]
protein stability index [1]: 0.714 ± 0.021
protein stability index (genetic background: wild type): 0.694 ± 0.016

SGNYFFLDNTGI [RLI1 C-terminal 12 aa]
protein stability index [1]: 0.718 ± 0.015
protein stability index (genetic background: wild type): 0.754 ± 0.056

DMGKNLLQNKKF [ERG2 C-terminal 12 aa]
protein stability index [1]: 0.695 ± 0.039
protein stability index (genetic background: wild type): 0.695 ± 0.012

NFFESYRTISCL [YPL038W-A C-terminal 12 aa]
protein stability index [1]: 0.6408 ± 0.0042
protein stability index (genetic background: wild type): 0.3261 ± 0.0021

STSGESFTETQF [ICL2 C-terminal 12 aa]
protein stability index [1]: 0.6971 ± 0.0022
protein stability index (genetic background: wild type): 0.73 ± 0.054

AFTRRRFMNKSL [ARC18 C-terminal 12 aa]
protein stability index [1]: 0.69 ± 0.012
protein stability index (genetic background: wild type): 0.485 ± 0.034

TIIYPLFIFFSL [YMR105W-A C-terminal 12 aa]
protein stability index [1]: 0.312 ± 0.022
protein stability index (genetic background: wild type): 0.225 ± 0.0044

YSLLIHLSKKKS [YNR005C C-terminal 12 aa]
protein stability index [1]: 0.668 ± 0.025
protein stability index (genetic background: wild type): 0.6119 ± 0.0036

KDRCGNVPHQSR [MRN1 C-terminal 12 aa]
protein stability index [1]: 0.706 ± 0.0088
protein stability index (genetic background: wild type): 0.716 ± 0.08

TKAIEDAKKEMK [NUP2 C-terminal 12 aa]
protein stability index [1]: 0.714 ± 0.013
protein stability index (genetic background: wild type): 0.737 ± 0.11

GFQTGSASKASA [RPL37A C-terminal 12 aa]
protein stability index [1]: 0.71864 ± 0.00033
protein stability index (genetic background: wild type): 0.712 ± 0.019

TQKKVDQRWKKH [SEN54 C-terminal 12 aa]
protein stability index [1]: 0.692 ± 0.016
protein stability index (genetic background: wild type): 0.737 ± 0.082

VAHRENLAFPPR [PRO1 C-terminal 12 aa]
protein stability index [1]: 0.732 ± 0.02
protein stability index (genetic background: wild type): 0.707 ± 0.012

LATMILARMSCS [IRA1 C-terminal 12 aa]
protein stability index [1]: 0.682 ± 0.023
protein stability index (genetic background: wild type): 0.657 ± 0.035

FIKLSLASSFSN [ISF1 C-terminal 12 aa]
protein stability index [1]: 0.7094 ± 0.0028
protein stability index (genetic background: wild type): 0.661 ± 0.022

SSLDEVLAKDKD [MIN8 C-terminal 12 aa]
protein stability index [1]: 0.736 ± 0.018
protein stability index (genetic background: wild type): 0.6795 ± 0.0061

AGTENDEEEFNI [PSF2 C-terminal 12 aa]
protein stability index [1]: 0.674 ± 0.018
protein stability index (genetic background: wild type): 0.672 ± 0.044

LYHKDADTIFHA [IRC11 C-terminal 12 aa]
protein stability index [1]: 0.708 ± 0.014
protein stability index (genetic background: wild type): 0.715 ± 0.015

IMLTLLMFTGAV [PLB3 C-terminal 12 aa]
protein stability index [1]: 0.402 ± 0.0044
protein stability index (genetic background: wild type): 0.396 ± 0.0091

ELKRKDALSKKI [COA2 C-terminal 12 aa]
protein stability index [1]: 0.688 ± 0.048
protein stability index (genetic background: wild type): 0.75 ± 0.017

PMIKRQCEIIQF [TIP41 C-terminal 12 aa]
protein stability index [1]: 0.645 ± 0.029
protein stability index (genetic background: wild type): 0.676 ± 0.0097

LGYTDDEIYNRQ [SER2 C-terminal 12 aa]
protein stability index [1]: 0.706 ± 0.026
protein stability index (genetic background: wild type): 0.681 ± 0.036

IHRSVSELSRLH [MBB1 C-terminal 12 aa]
protein stability index [1]: 0.705 ± 0.023
protein stability index (genetic background: wild type): 0.689 ± 0.025

GNAIREIKTYKY [GLY1 C-terminal 12 aa]
protein stability index [1]: 0.687 ± 0.035
protein stability index (genetic background: wild type): 0.658 ± 0.052

AYLQYYSESPEN [DUG1 C-terminal 12 aa]
protein stability index [1]: 0.707 ± 0.0053
protein stability index (genetic background: wild type): 0.724 ± 0.051

LLLPITSSLLFI [MIN4 C-terminal 12 aa]
protein stability index [1]: 0.618 ± 0.011
protein stability index (genetic background: wild type): 0.62 ± 0.021

GPYWKRVLDFWC [GNP1 C-terminal 12 aa]
protein stability index [1]: 0.752 ± 0.012
protein stability index (genetic background: wild type): 0.739 ± 0.029

KELVKRRIVGEV [AEP3 C-terminal 12 aa]
protein stability index [1]: 0.6815 ± 0.0042
protein stability index (genetic background: wild type): 0.72 ± 0.064

PKWTDCEGDLTT [DET1 C-terminal 12 aa]
protein stability index [1]: 0.712 ± 0.011
protein stability index (genetic background: wild type): 0.7387 ± 0.0071

IITGSTSTSSSN [MED8 C-terminal 12 aa]
protein stability index [1]: 0.671 ± 0.017
protein stability index (genetic background: wild type): 0.7067 ± 0.00076

TSDGSASDLEII [MCM10 C-terminal 12 aa]
protein stability index [1]: 0.686 ± 0.0096
protein stability index (genetic background: wild type): 0.692 ± 0.024

DSQDMERMDSDS [YLR076C C-terminal 12 aa]
protein stability index [1]: 0.691 ± 0.035
protein stability index (genetic background: wild type): 0.745 ± 0.11

DLVKASSTLNVS [SDL1 C-terminal 12 aa]
protein stability index [1]: 0.682 ± 0.0043
protein stability index (genetic background: wild type): 0.672 ± 0.0084

SKFIEKFQDIVS [MED1 C-terminal 12 aa]
protein stability index [1]: 0.701 ± 0.014
protein stability index (genetic background: wild type): 0.712 ± 0.018

LDYALVEMDKLF [UTP13 C-terminal 12 aa]
protein stability index [1]: 0.708 ± 0.033
protein stability index (genetic background: wild type): 0.708 ± 0.039

DPKLYFDATILS [TDA3 C-terminal 12 aa]
protein stability index [1]: 0.703 ± 0.025
protein stability index (genetic background: wild type): 0.691 ± 0.013

IEHVKYDNIVSP [UBC12 C-terminal 12 aa]
protein stability index [1]: 0.6974 ± 0.0012
protein stability index (genetic background: wild type): 0.675 ± 0.011

KLSNWLFGWNDL [ASM4 C-terminal 12 aa]
protein stability index [1]: 0.753 ± 0.019
protein stability index (genetic background: wild type): 0.746 ± 0.052

VKDKVDAVYSSS [FAA1 C-terminal 12 aa]
protein stability index [1]: 0.6925 ± 0.0045
protein stability index (genetic background: wild type): 0.678 ± 0.011

EFDLADDRRYDI [TPO5 C-terminal 12 aa]
protein stability index [1]: 0.705 ± 0.03
protein stability index (genetic background: wild type): 0.682 ± 0.011

NKEYWMKHKKPQ [PDE2 C-terminal 12 aa]
protein stability index [1]: 0.688 ± 0.0074
protein stability index (genetic background: wild type): 0.762 ± 0.013

TISRLPPRSWTN [YCL042W C-terminal 12 aa]
protein stability index [1]: 0.717 ± 0.037
protein stability index (genetic background: wild type): 0.739 ± 0.015

LSIGQKLTTPLC [SYC1 C-terminal 12 aa]
protein stability index [1]: 0.651 ± 0.015
protein stability index (genetic background: wild type): 0.656 ± 0.029

IEELLAGIRMSI [BIT61 C-terminal 12 aa]
protein stability index [1]: 0.719 ± 0.028
protein stability index (genetic background: wild type): 0.706 ± 0.037

TQLVQKALERFK [RIC1 C-terminal 12 aa]
protein stability index [1]: 0.734 ± 0.025
protein stability index (genetic background: wild type): 0.676 ± 0.084
